The values below come from the supplement of paper PMC9170038.

The data set deals with MS2 coat protein. Description: apparent KD of MS2 coat protein; higher = weaker reporter binding. The conditions noted are these: Eterna round: R107. Summed up: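 Illumina sequencing clusters were used for on-chip transcription of designed RNA switches. Titration with SNAP-549-labelled MS2 coat protein followed, in twofold steps from 0.7 or 1.5 nM to 3 µM in 100 mM Tris-HCl pH 7.5, 80 mM KCl, 4 mM MgCl2, without or with constant ligand. Apparent KD is each design's median of fits to normalised cluster binding curves.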

Setting [1] is: input ligand: theophylline 20 uM.
The mark [2] stands for this setting: input ligand: theophylline 2 mM.
Setting [3] is: input ligand: tryptophan 2.4 mM.

For the sequence “ACGUCGCAUAGGAAAACUAUGUGACGAAAUCGAGGACCGGUACGGCCGCCACUCGUCCUCAACAUGAGGAUCACCCAUGUAAUAA [Mat - Exclusion - Trytophan A - D7]”, the “apparent KD of MS2 coat protein” value reads like this: (input ligand: arginine 13.2 mM) 19.3 nM; under setting [1], 23.3 nM; under setting [2], 22.3 nM.

In the case of “ACAUGAAGAACAGCGGUGGGCGCGCUCGAUACCAGUAUUUUAAACUACCCUUGGCAGCGACAUGAGGAUCACCCAUGUGAGAUGA [XTheo A #6]”, the “apparent KD of MS2 coat protein” value runs as follows: (input ligand: arginine 13.2 mM) 16.9 nM; under setting [1], 21.8 nM; under setting [3], 19.5 nM.

Turning to “UAAAACAUGAGGAUCACCCAUGUAUUGAGUCGAGGACCGGUACGGCCGCCACUCGGCAAUAAUAACGACGCAUAGCAUGUAGGAA [theeternabot_sameState_MS2_Trp_A_41]”, the “apparent KD of MS2 coat protein” value reads like this: (input ligand: arginine 13.2 mM) 12.8 nM; under setting [1], 19.5 nM; under setting [2], 14.9 nM.

Turning to “GGUACAUGAGGAUCACCCAUGUGUCAUGAUACCAGACAUGAAAAUGUCCCUUGGCAGCAUGCCUGAUGGCCGCGUUUAGCGGCCG [Liskovec]”, the “apparent KD of MS2 coat protein” value runs as follows: (input ligand: arginine 13.2 mM) 15.8 nM; (input ligand: none) 15.7 nM; under setting [1], 19.5 nM; under setting [2], 20.7 nM; under setting [3], 16.2 nM.

On to “AUAACUGUAAUAAACCGCAGGCUAGUGGAAGGAGCGCGGAAUAACGCAGGUAGGUCGCCACAAACAUGAGGAUCACCCAUGUGGC [SSAA NP+V+V2 #6]”, for which the “apparent KD of MS2 coat protein” value came out at 16 nM (input ligand: arginine 13.2 mM); 16 nM (input ligand: none); 21.6 nM under setting [1]; 20.7 nM under setting [2]; 19.6 nM under setting [3].

Take “AGCCACUCGAGUGAUCCUCACGAGUGGCAACGAGGACCGGUACGGCCGCCACUCGAAUCAACAUGAGGAUCACCCAUGUAAUAAU [Brourdmod01]”: the “apparent KD of MS2 coat protein” value (input ligand: arginine 13.2 mM) was 28.2 nM; the “apparent KD of MS2 coat protein” value (input ligand: none) was found to be 76.3 nM; the “apparent KD of MS2 coat protein” value under setting [1] was determined as 123 nM; the “apparent KD of MS2 coat protein” value under setting [2] came to 82.3 nM; the “apparent KD of MS2 coat protein” value under setting [3] was determined as 97.7 nM.

With “ACAUGAGGAUCACCCAUGUUCCUCAUUGAUACCAGUGAAUUUAGACGCCCUUGGCAGCGAGUUUUUUAAGAAGAAGUUUUUUUUU [6.E]”, the “apparent KD of MS2 coat protein” value reads like this: (input ligand: arginine 13.2 mM) 551 nM; under setting [1], 793 nM; under setting [3], 992 nM.

In the case of “CGAGUGAGUUCAAUCGAAUAACGGUUUUCGCGAGGACCGGUACGGCCGCCACUCGUGUGAUAUCACACAUGAGGAUCACCCAUGU [3'end-1]”, the “apparent KD of MS2 coat protein” value (input ligand: arginine 13.2 mM) worked out at 34.7 nM, the “apparent KD of MS2 coat protein” value under setting [1] was 49 nM and the “apparent KD of MS2 coat protein” value under setting [2] came out at 63.4 nM.

Turning to “UUAUAAGUACCGGUCCUCAGAUCCUCAUGACGAGGACCGGUACGGCCGCCACUCGAAACAUGAGGAUCACCCAUGUAAUAACACU [Brourdmod20]”, the “apparent KD of MS2 coat protein” value runs as follows: (input ligand: arginine 13.2 mM) 19.2 nM; under setting [1], 30.4 nM; under setting [2], 24.6 nM.

“AUAACACAUGAGGAUCACCCAUGUAAGGAUACCAGUUUCUGAUUAAACCCUUGGCAGCCUAGAGAUAGUCAUGUAAUAACGGCGA [theeternabot_sameState_MS2_Theo_A_19]”: the “apparent KD of MS2 coat protein” value runs as follows: (input ligand: arginine 13.2 mM) 12.4 nM; under setting [1], 18.1 nM; under setting [3], 12.2 nM.

On to “ACACAUGAUAGAAGGAGCGCAAUGAACACACAUGAGGAUCACCCAUGUUUUUUUUGUGUUUUGCAGGUAGGUCGCUAACAUGAGG [Same State Arginine B 4]”, for which the “apparent KD of MS2 coat protein” value by setting is: (input ligand: arginine 13.2 mM) 11 nM; (input ligand: none) 8.66 nM; under setting [1], 23.6 nM; under setting [2], 11 nM; under setting [3], 8.32 nM.

Regarding “GUACAUGAGGAUCACCCAUGUAUAGUUGAAGGAGCGACCAGAGGGUCAGGUAGGUCGCAGCACAUGGUGAAAACCCGUGUAUGCC [#1 Exclusion - Arginine A Attempt #21 (Inspired by Pi)]”, the “apparent KD of MS2 coat protein” value by setting is: (input ligand: arginine 13.2 mM) 40.4 nM; (input ligand: none) 33.4 nM; under setting [1], 61.7 nM; under setting [2], 49.1 nM; under setting [3], 27.6 nM.

Regarding “GGGAGGGAGGCGGCCGCCACUGAUUUUCAUAUAUAUAUAACAUGAGGAUCACCCAUGUGGAUAUACAGGACCGGGCCUUUUUUUU [aaaH]”, the “apparent KD of MS2 coat protein” value reads like this: (input ligand: arginine 13.2 mM) 17.6 nM; under setting [1], 30.1 nM; under setting [2], 19.1 nM.

In the case of “UGACAUUGCUCAGAUACCAGACGUGAGGAUCACCCACGUGCCAACAAGUACAUAAUAAAUGUCCCUUGGCAGCUGAGCAAUGUCU [TheoBX 17 #MS2Left #Theo2 #AlternativeMS2]”, the “apparent KD of MS2 coat protein” value is 16.4 nM (input ligand: arginine 13.2 mM); 11.2 nM (input ligand: none); 15.2 nM under setting [1]; 15.1 nM under setting [2]; 10.9 nM under setting [3].

For the sequence “AUGCAGAACACGGCCGCCACUCAUUGUAGACAUGAGGAUCACCCAUGUAAUAGGGAUAUUUUAUUGAGGACCGGGUGUAAUGCAA [JR_SSTryptoB_Sub013]”, the “apparent KD of MS2 coat protein” value (input ligand: arginine 13.2 mM) amounted to 34.5 nM, the “apparent KD of MS2 coat protein” value under setting [1] was 77.6 nM and the “apparent KD of MS2 coat protein” value under setting [2] worked out at 59.5 nM.

For “AACAUGAGGAUCACCCAUGUCCCAUGUGAACGAGGACCGGUACGGCCGCCACUCGACCGAGGCGGCACAUGAGGAUCACCCACAU [whbob_SS_trypto A_2s13]”, the “apparent KD of MS2 coat protein” value by setting is: (input ligand: arginine 13.2 mM) 137 nM; under setting [1], 278 nM; under setting [2], 370 nM.

“GCUAGGUCAUCGGCCGCCACUAACGACGGUUCCAACAUGAGGAUCACCCAUGUGCCACAUGCGCAUAGGACCGGGAUGACCUAGC [SSTB NP+V+V2 #5]”: the “apparent KD of MS2 coat protein” value came to 31.1 nM (input ligand: arginine 13.2 mM), 51.2 nM under setting [1] and 42.7 nM under setting [2].

“CAAUAUAUAUGAAGGAGCGUCGAAAAUGGGUAAACAUGAGGAUCACCCAUGUAAAGGGAACGACAGGUAGGUCGCAUAUAUAUUG [AstromonsSSArgB#8]”: the “apparent KD of MS2 coat protein” value (input ligand: arginine 13.2 mM) is 117 nM; the “apparent KD of MS2 coat protein” value (input ligand: none) came out at 168 nM; the “apparent KD of MS2 coat protein” value under setting [1] came out at 305 nM; the “apparent KD of MS2 coat protein” value under setting [2] worked out at 218 nM; the “apparent KD of MS2 coat protein” value under setting [3] is 192 nM.

Regarding “AGCAUACAUUCUGAUACCAGAGACAUGAGGAUCACCCAUGUCCGAUCGUCCUGCCUCAGACUCCCUUGGCAGCAGGAUGUGUGCU [Exclusion Theophylline B GF6]”, the “apparent KD of MS2 coat protein” value stood at 13.1 nM (input ligand: arginine 13.2 mM), 17.6 nM under setting [1] and 13.8 nM under setting [3].
